Experimental data published in patent publication US20030054360.

Experiments:
Experiment in all cases: filter
Conditions in all cases: 5-BrdU replaces T, apparent photocrosslink KD
[1] = molecular target: platelet-derived growth factor (PDGF) (Homo sapiens) (UniProt P01127)
[2] = molecular target: Angiogenin (UniProt P03950)
[3] = molecular target: T1, P-Selectin (Homo sapiens) (UniProt P16109)
T1 sequence: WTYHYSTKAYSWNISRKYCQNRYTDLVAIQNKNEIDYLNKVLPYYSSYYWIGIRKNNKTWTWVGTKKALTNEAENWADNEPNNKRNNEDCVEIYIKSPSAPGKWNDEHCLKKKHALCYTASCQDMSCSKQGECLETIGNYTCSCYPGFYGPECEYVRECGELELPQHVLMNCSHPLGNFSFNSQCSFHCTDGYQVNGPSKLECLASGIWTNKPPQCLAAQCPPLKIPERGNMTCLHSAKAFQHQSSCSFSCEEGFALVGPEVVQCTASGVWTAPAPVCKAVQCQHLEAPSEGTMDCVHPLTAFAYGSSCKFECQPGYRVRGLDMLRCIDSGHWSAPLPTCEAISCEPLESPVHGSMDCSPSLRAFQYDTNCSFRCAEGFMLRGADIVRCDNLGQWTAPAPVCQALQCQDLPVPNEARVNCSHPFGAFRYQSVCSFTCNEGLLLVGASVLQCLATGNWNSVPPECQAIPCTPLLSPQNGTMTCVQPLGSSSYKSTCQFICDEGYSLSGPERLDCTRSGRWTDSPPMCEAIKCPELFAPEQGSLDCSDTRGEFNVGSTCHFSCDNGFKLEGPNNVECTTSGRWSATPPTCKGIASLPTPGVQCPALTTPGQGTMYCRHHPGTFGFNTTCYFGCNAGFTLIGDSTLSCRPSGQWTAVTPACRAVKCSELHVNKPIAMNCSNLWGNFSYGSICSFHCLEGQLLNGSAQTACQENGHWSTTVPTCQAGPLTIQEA

[4] = molecular target: beta-Nerve Growth Factor (beta-NGF) (UniProt P01138)
[5] = molecular target: T2, Interleukin-4 (UniProt P05112)
T2 sequence: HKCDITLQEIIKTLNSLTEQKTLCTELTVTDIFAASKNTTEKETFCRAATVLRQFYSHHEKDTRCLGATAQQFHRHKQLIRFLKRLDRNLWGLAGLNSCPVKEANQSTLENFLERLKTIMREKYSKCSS

[6] = molecular target: Transforming Growth Factor beta1 (TGF-beta1) (UniProt P01137)
Transforming Growth Factor beta1 (TGF-beta1), sequence (P01137 279-390): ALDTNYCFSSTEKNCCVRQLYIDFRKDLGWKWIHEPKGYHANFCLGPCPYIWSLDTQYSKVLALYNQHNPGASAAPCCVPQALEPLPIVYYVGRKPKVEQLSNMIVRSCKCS

beta-Nerve Growth Factor (beta-NGF), sequence (P01138 122-241): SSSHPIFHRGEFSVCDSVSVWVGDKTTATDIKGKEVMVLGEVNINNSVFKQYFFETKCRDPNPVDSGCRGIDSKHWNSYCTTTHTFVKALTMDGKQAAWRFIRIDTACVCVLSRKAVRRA
Angiogenin, sequence (P03950 25-147): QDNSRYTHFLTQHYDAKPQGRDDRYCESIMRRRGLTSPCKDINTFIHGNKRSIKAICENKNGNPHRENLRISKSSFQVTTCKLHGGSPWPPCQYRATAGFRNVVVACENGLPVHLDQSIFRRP
platelet-derived growth factor (PDGF) (Homo sapiens), sequence (P01127 82-190): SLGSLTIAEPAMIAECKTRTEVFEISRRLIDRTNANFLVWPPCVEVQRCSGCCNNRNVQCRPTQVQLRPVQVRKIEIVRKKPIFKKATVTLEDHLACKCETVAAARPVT

Sequence: ATATATATGGGAGGACGATGCGGCAAGGGAAACAGATAGCCCAGGCTCCCCCCCAGACGACGAGCGGGAAAAAAAA [PDGF pool 008 clone 37]
- Kd ([1]; plateau 74%, rate 0.21): 2.4 nM

Sequence: ATATATATGGGAGGACGATGCGGCACAAGGAACAAAGCGGCCCCTATCCCCAACAGACGACGAGCGGGAAAAAAAA [PDGF pool 008 clone 31]
- Kd ([1]; plateau 100%, rate 0.19): 5.3 nM

Sequence: ATATATATGGGAGGACGATGCGGCACCAAAAGGTGGTCTTAGCCTAATTATGGACGTGTCCACCAGACGACGAGCGGGAAAAAAAA [Angiogenin pool 011 clone 27]
- Kd ([2]; plateau 37%, rate 0.62): 0.3 nM

Sequence: ATATATATGGGAGGACGATGCGGCACGAGGGAATCACCTCGAACTTGTCCTGGATTACTGCCCAGACGACGAGCGGGAAAAAAAA [P-selectin pool 014 clone 21]
- Kd ([3]; plateau 31%, rate 0.76): 9.1 nM

Sequence: ATATATATGGGAGGACGATGCGGCAGCACCGAGGTACCCAACAGGGATCCGCCCAGACGACGAGCGGGAAAAAAAA [PDGF pool 008 clone 26]
- Kd ([1]; plateau 67%, rate 0.43): 1.8 nM

Sequence: ATATATATGGGAGGACGATGCGGCCATACGCACTTCAGTGGGGATAATCCAACTGGTTTGGTGCAGACGACGAGCGGGAAAAAAAA [P-selectin pool 014 clone 95]
- Kd ([3]; plateau 39%, rate 1.54, same sequence as SEQ 39): 45 nM

Sequence: ATATATATGGGAGGACGATGCGGCCATACGCACTTCAGTGGGGATAATCCAACTGGTTTGGTGCAGACGACGAGCGGGAAAAAAAA [beta-NGF pool 031 clone 43]
- Kd ([4]; plateau 38%): 7.9 nM

Sequence: ATATATATGGGAGGACGATGCGGCCATGAACCCATCCTCTGGTTCATAATCGACGTGTTCGTGCAGACGACGAGCGGGAAAAAAAA [P-selectin pool 014 clone 17]
- Kd ([3]; plateau 59%, rate 1.36): 18 nM

Sequence: ATATATATGGGAGGACGATGCGGCCCCGAGTTTCCCTAAGGTTTGGTTGACCTGTCATTTCAGCAGACGACGAGCGGGAAAAAAAA [IL-4 pool 012 clone 48]
- Kd ([5]; plateau 52%, rate 0.17): 4.3 nM

Sequence: ATATATATGGGAGGACGATGCGGCCGGACATCCCCCAGGGCAAAACCAACTCCCAGACGACGAGCGGGAAAAAAAA [PDGF pool 008 clone 35]
- Kd ([1]; plateau 71%, rate 0.07): 5.1 nM

Sequence: ATATATATGGGAGGACGATGCGGCGCCCCGATTGACCTTCGATTTATCCTACTTATGGCACCCCAGACGACGAGCGGGAAAAAAAA [P-selectin pool 014 clone 14]
- Kd ([3]; plateau 15%, rate 4): 0.35 nM

Sequence: ATATATATGGGAGGACGATGCGGGACCAAATACCAACTTCACATCACCTTTCTTATTCTCCGGCAGACGACGAGCGGGAAAAAAAA [beta-NGF pool 031 clone 44]
- Kd ([4]; plateau 58%, rate 0.59): 2.2 nM

Sequence: ATATATATGGGAGGACGATGCGGGACCAATAACACTACACTGATCATCTCCCTTCTATGTCCCCAGACGACGAGCGGGAAAAAAAA [beta-NGF pool 031 clone 7]
- Kd ([4]; plateau 55%, rate 0.42): 2.5 nM

Sequence: ATATATATGGGAGGACGATGCGGGACCATCCAATACCTTCCGTAACACTTTCCTTCTTCCTTCCAGACGACGAGCGGGAAAAAAAA [TGF-beta1 pool 015 clone 81]
- Kd ([6]; plateau 80%, rate 0.58): 7.2 nM

Sequence: ATATATATGGGAGGACGATGCGGGCAAAGTCTTGGTCCACCAAATATGTGATGTCACCACCAGCAGACGACGAGCGGGAAAAAAAA [Angiogenin pool 011 clone 59]
- Kd ([2]; plateau 26%, rate 0.52): 0.22 nM

Sequence: ATATATATGGGAGGACGATGCGGGCACAACCTTACCACCCTAGCCTACCCCTAACCTCCTGTCCAGACGACGAGCGGGAAAAAAAA [TGF-beta1 pool 015 clone 74]
- Kd ([6]; plateau 79%, rate 0.34): 4.9 nM

Sequence: ATATATATGGGAGGACGATGCGGGCACAATCAAGACCTCTCCAAACTTGAACTCTGTCTATCCCAGACGACGAGCGGGAAAAAAAA [TGF-beta1 pool 015 clone 87]
- Kd ([6]; plateau 80%, rate 0.5): 62 nM

Sequence: ATATATATGGGAGGACGATGCGGGCACACTTAAATCCACTTCACCTTACAATTCCTTTATCTGCAGACGACGAGCGGGAAAAAAAA [beta-NGF pool 031 clone 17]
- Kd ([4]; plateau 66%, rate 1.2, Table 7 sequence differs slightly from listing): 0.21 nM

Sequence: ATATATATGGGAGGACGATGCGGGCACCTACCTGAGCTACATATGACAGTGTCACCCTGGCCCCAGACGACGAGCGGGAAAAAAAA [Angiogenin pool 011 clone 14]
- Kd ([2]; plateau 34%, rate 1.3): 0.2 nM

Sequence: ATATATATGGGAGGACGATGCGGGCACTAACTTTACCTCCACCTCTAACCACCCTCCTTTCTGCAGACGACGAGCGGGAAAAAAAA [beta-NGF pool 031 clone 65]
- Kd ([4]; plateau 47%, rate 0.94): 0.2 nM

Sequence: ATATATATGGGAGGACGATGCGGGCCAAATGGACTTTTCGCCACGAACTTACGACGGTGTTGCCAGACGACGAGCGGGAAAAAAAA [Angiogenin pool 011 clone 16]
- Kd ([2]; plateau 28%, rate 2.6): 0.3 nM

Sequence: ATATATATGGGAGGACGATGCGGGCCAACCACGTGGTATTATTGACCTTGCAATGGGAATGCCCAGACGACGAGCGGGAAAAAAAA [Angiogenin pool 011 clone 11]
- Kd ([2]; plateau 23%, rate 1.46): 1.1 nM

Sequence: ATATATATGGGAGGACGATGCGGGCCAACCCCTAGTGAACAACAACACTCCCACAGACGACGAGCGGGAAAAAAAA [PDGF pool 4 clone 87]
- Kd ([1]; plateau 36%, rate 0.29): 2 nM

Sequence: ATATATATGGGAGGACGATGCGGGCCAAGGACATTCTTGTTCGTTGTTGCTGTCCACTGTCTCCAGACGACGAGCGGGAAAAAAAA [IL-4 pool 012 clone 78]
- Kd ([5]; plateau 10%, rate 1.7): 9.7 nM

Sequence: ATATATATGGGAGGACGATGCGGGCCAAGGTTCCCTTCTGCCTCATTGTTGTGGGAACCCATCCAGACGACGAGCGGGAAAAAAAA [IL-4 pool 012 clone 41]
- Kd ([5]; plateau 58%, rate 0.54, Table 7 sequence differs slightly from listing): 61 nM

Sequence: ATATATATGGGAGGACGATGCGGGCCACGTGTATTATCCTCAGCTTATAGCCATGGCATGGACCAGACGACGAGCGGGAAAAAAAA [Angiogenin pool 011 clone 58]
- Kd ([2]; plateau 16%, rate 1.58): 2.2 nM

Sequence: ATATATATGGGAGGACGATGCGGGCCCCAAACACTTGTTCCTATCTTTCAACCCCCCTTGATCCAGACGACGAGCGGGAAAAAAAA [beta-NGF pool 031 clone 78]
- Kd ([4]; plateau 94%, rate 0.38): 31 nM

Sequence: ATATATATGGGAGGACGATGCGGGCCCTACTTGCATGAATATCCACTCCTAGGCTTGAGGGAGCAGACGACGAGCGGGAAAAAAAA [Angiogenin pool 011 clone 85]
- Kd ([2]; plateau 31%, rate 3.5): 0.2 nM

Sequence: ATATATATGGGAGGACGATGCGGGCCGAAGTCTAAACCTGCTCGTGACTTTCTTTCGATGTTGCAGACGACGAGCGGGAAAAAAAA [IL-4 pool 012 clone 8]
- Kd ([5]; plateau 40%, rate 1.8): 39 nM

Sequence: ATATATATGGGAGGACGATGCGGGCCTACCAACTCCCCTCTAGTCCTGTTCTATCCACGTTGGCAGACGACGAGCGGGAAAAAAAA [IL-4 pool 012 clone 31]
- Kd ([5]; plateau 49%, rate 0.98): 21 nM

Sequence: ATATATATGGGAGGACGATGCGGGCGAAGGCACACCGAGTTCATAGTATCCCACAGACGACGAGCGGGAAAAAAAA [PDGF pool 4 clone 64]
- Kd ([1]; plateau 53%, rate 0.2): 4 nM

Sequence: ATATATATGGGAGGACGATGCGGGCGGAAGAGGCAGGGTACCACGGCAGAGGTCAGACGACGAGCGGGAAAAAAAA [PDGF pool 4 clone 24]
- Kd ([1]; plateau 52%, rate 0.25): 2 nM

Sequence: ATATATATGGGAGGACGATGCGGGCGGCAGACGCGCCGGGTACCCCAGGTCCCCAGACGACGAGCGGGAAAAAAAA [PDGF pool 008 clone 27]
- Kd ([1]; plateau 100%, rate 0.34): 3.2 nM

Sequence: ATATATATGGGAGGACGATGCGGGCTCAATAACCTGAATCTACCTTTCCCTAGCAAAGGTCTGCAGACGACGAGCGGGAAAAAAAA [P-selectin pool 014 clone 24]
- Kd ([3]; plateau 30%, rate 1.86): 2.1 nM

Sequence: ATATATATGGGAGGACGATGCGGGGCAAACTGCGTCGTATTATAAGCCTCGCTACAGATGCCACAGACGACGAGCGGGAAAAAAAA [Angiogenin pool 011 clone 12]
- Kd ([2]; plateau 31%, rate 0.68): 0.1 nM

Sequence: ATATATATGGGAGGACGATGCGGGGGGCAAGAAGCACGGTACCCCAGGTCCGCCAGACGACGAGCGGGAAAAAAAA [PDGF pool 008 clone 33]
- Kd ([1]; plateau 100%, rate 0.24): 5.7 nM
